Data as given in publication PMC6762143.

What was measured:
[1] = biological target: FRET-PGK1 (PGK1 labeled with mEGFP at the N-terminus and mCherry at the C-terminus) (yeast) (UniProt P00560)
[2] = biological target: mEGFP (free), expressed in U-2 OS cells; assay: FRET or BRET; in living U-2 OS cells co-transfected with both proteins; only cells with about 1:1 expression; epifluorescence microscope, infrared laser temperature ramp 19-46°C; average of 15-30 cells
[3] = biological target: ePGK3, expressed in U-2 OS cells (yeast) (UniProt P00560); assay: as above
[4] = biological target: ePGK2, expressed in U-2 OS cells (yeast) (UniProt P00560); assay: as above

Hsp70 (as used in the stopped flow PGK refolding assay) (from UniProt P0DMV8 1-641) (natural protein)
folding efficiency of GuHCl-denatured efPGK1 in stopped flow refolding (intramolecular FRET) with 100 μM Hsp70 and 22.5 μM Hsp40, 2 mM ATP; 47% without Hsp70 [1]: 57%

mCherry (free), expressed in U-2 OS cells
E FRET change [2]: 2%

mHsp70 (Hsp70 labeled by mCherry at the C-terminus), expressed in U-2 OS cells (from UniProt P0DMV8 1-641) (natural protein)
T0 (binding temperature midpoint) [3]: 37.1 °C
overall E FRET change [3]: 8%
T0 (binding temperature midpoint) [4]: 39.1 °C
overall E FRET change [4]: 8%
